Assay results taken from PMC3664827.

Tested on: Lsr2 (Mycobacterium tuberculosis)
Experiment: magnetic tweezers

Substance lambda DNA 48,502 bp has a Kd of 57.5 nM.
